In patent publication US20230407373A1 (priority 2020, published 2023):

Experiments:
HCoV-OC43 gRNA and sgRNA = assay type: binding; conditions: for target (unweighted spectral count): OC43 Probe II, 12 hpi (type n_12_v), infected cells, tested against no-probe control
gRNA of HCoV-OC43 = assay type: binding; conditions: type n_48_v: 48 hours post-infection, no-probe control on infected cells

Molecule	target (unweighted spectral count) (HCoV-OC43 gRNA and sgRNA)	further results
TMPO (protein, UniProt P42166 2-694, looked up) Lamina-associated polypeptide …: PEFLEDPSVLTKDKLKSELVANNVTLPAGEQRKDVYVQLYLQHLTARNRPPLPAGTNSKGPPDFSSDEEREPTPVLGSGAAAAGRSRAAVGRKATKKTDKPRQEDKDDLDVTELTNEDLLDQLVKYGVNPGPIVGTTRKLYEKKLLKLREQGTESRSSTPLPTISSSAENTRQNGSNDSDRYSDNEEGKKKEHKKVKSTRDIVPFSELGTTPSGGGFFQGISFPEISTRPPLGSTELQAAKKVHTSKGDLPREPLVATNLPGRGQLQKLASERNLFISCKSSHDRCLEKSSSSSSQPEHSAMLVSTAASPSLIKETTTGYYKDIVENICGREKSGIQPLCPERSHISDQSPLSSKRKALEESESSQLISPPLAQAIRDYVNSLLVQGGVGSLPGTSNSMPPLDVENIQKRIDQSKFQETEFLSPPRKVPRLSEKSVEERDSGSFVAFQNIPGSELMSSFAKTVVSHSLTTLGLEVAKQSQHDKIDASELSFPFHESILKVIEEEWQQVDRQLPSLACKYPVSSREATQILSVPKVDDEILGFISEATPLGGIQAASTESCNQQLDLALCRAYEAAASALQIATHTAFVAKAMQADISQAAQILSSDPSRTHQALGILSKTYDAASYICEAAFDEVKMAAHTMGNATVGRRYLWLKDCKINLASKNKLASTPFKGGTLFGGEVCKVIKKRGNKH	4	
HNANPF (protein, UniProt P52597 1-415, looked up) Heterogeneous nuclear …: MMLGPEGGEGFVVKLRGLPWSCSVEDVQNFLSDCTIHDGAAGVHFIYTREGRQSGEAFVELGSEDDVKMALKKDRESMGHRYIEVFKSHRTEMDWVLKHSGPNSADSANDGFVRLRGLPFGCTKEEIVQFFSGLEIVPNGITLPVDPEGKITGEAFVQFASQELAEKALGKHKERIGHRYIEVFKSSQEEVRSYSDPPLKFMSVQRPGPYDRPGTARRYIGIVKQAGLERMRPGAYSTGYGGYEEYSGLSDGYGFTTDLFGRDLSYCLSGMYDHRYGDSEFTVQSTTGHCVHMRGLPYKATENDIYNFFSPLNPVRVHIEIGPDGRVTGEADVEFATHEEAVAAMSKDRANMQHRYIELFLNSTTGASNGAYSSQVMQGMGVSAAQATYSGLESQSVSGCYGAGYSGQNSMGGYD		background (spectral count, no-probe control) (gRNA of HCoV-OC43): 4
POLG (protein, UniProt P54098 1-1239, looked up) DNA polymerase subunit gamma-1: MSRLLWRKVAGATVGPGPVPAPGRWVSSSVPASDPSDGQRRRQQQQQQQQQQQQQPQQPQVLSSEGGQLRHNPLDIQMLSRGLHEQIFGQGGEMPGEAAVRRSVEHLQKHGLWGQPAVPLPDVELRLPPLYGDNLDQHFRLLAQKQSLPYLEAANLLLQAQLPPKPPAWAWAEGWTRYGPEGEAVPVAIPEERALVFDVEVCLAEGTCPTLAVAISPSAWYSWCSQRLVEERYSWTSQLSPADLIPLEVPTGASSPTQRDWQEQLVVGHNVSFDRAHIREQYLIQGSRMRFLDTMSMHMAISGLSSFQRSLWIAAKQGKHKVQPPTKQGQKSQRKARRGPAISSWDWLDISSVNSLAEVHRLYVGGPPLEKEPRELFVKGTMKDIRENFQDLMQYCAQDVWATHEVFQQQLPLFLERCPHPVTLAGMLEMGVSYLPVNQNWERYLAEAQGTYEELQREMKKSLMDLANDACQLLSGERYKEDPWLWDLEWDLQEFKQKKAKKVKKEPATASKLPIEGAGAPGDPMDQEDLGPCSEEEEFQQDVMARACLQKLKGTTELLPKRPQHLPGHPGWYRKLCPRLDDPAWTPGPSLLSLQMRVTPKLMALTWDGFPLHYSERHGWGYLVPGRRDNLAKLPTGTTLESAGVVCPYRAIESLYRKHCLEQGKQQLMPQEAGLAEEFLLTDNSAIWQTVEELDYLEVEAEAKMENLRAAVPGQPLALTARGGPKDTQPSYHHGNGPYNDVDIPGCWFFKLPHKDGNSCNVGSPFAKDFLPKMEDGTLQAGPGGASGPRALEINKMISFWRNAHKRISSQMVVWLPRSALPRAVIRHPDYDEEGLYGAILPQVVTAGTITRRAVEPTWLTASNARPDRVGSELKAMVQAPPGYTLVGADVDSQELWIAAVLGDAHFAGMHGCTAFGWMTLQGRKSRGTDLHSKTATTVGISREHAKIFNYGRIYGAGQPFAERLLMQFNHRLTQQEAAEKAQQMYAATKGLRWYRLSDEGEWLVRELNLPVDRTEGGWISLQDLRKVQRETARKSQWKKWEVVAERAWKGGTESEMFNKLESIATSDIPRTPVLGCCISRALEPSAVQEEFMTSRVNWVVQSSAVDYLHLMLVAMKWLFEEFAIDGRFCISIHDEVRYLVREEDRYRAALALQITNLLTRCMFAYKLGLNDLPQSVAFFSAVDIDRCLRKEVTMDCKTPSNPTGMERRYGIPQGEALDIYQIIELTKGSLEKRSQPGP	5	
DBX3X: host protein, UniProt O00571 (protein, UniProt O00571 2-662, looked up) ATP-dependent RNA helicase …: SHVAVENALGLDQQFAGLDLNSSDNQSGGSTASKGRYIPPHLRNREATKGFYDKDSSGWSSSKDKDAYSSFGSRSDSRGKSSFFSDRGSGSRGRFDDRGRSDYDGIGSRGDRSGFGKFERGGNSRWCDKSDEDDWSKPLPPSERLEQELFSGGNTGINFEKYDDIPVEATGNNCPPHIESFSDVEMGEIIMGNIELTRYTRPTPVQKHAIPIIKEKRDLMACAQTGSGKTAAFLLPILSQIYSDGPGEALRAMKENGRYGRRKQYPISLVLAPTRELAVQIYEEARKFSYRSRVRPCVVYGGADIGQQIRDLERGCHLLVATPGRLVDMMERGKIGLDFCKYLVLDEADRMLDMGFEPQIRRIVEQDTMPPKGVRHTMMFSATFPKEIQMLARDFLDEYIFLAVGRVGSTSENITQKVVWVEESDKRSFLLDLLNATGKDSLTLVFVETKKGADSLEDFLYHEGYACTSIHGDRSQRDREEALHQFRSGKSPILVATAVAARGLDISNVKHVINFDLPSDIEEYVHRIGRTGRVGNLGLATSFFNERNINITKDLLDLLVEAKQEVPSWLENMAYEHHYKGSSRGRSKSSRFSGGFGARDYRQSSGASSSSFSSSRASSSRSGGGGHGSSRGFGGGGYGGFYNSDGYGGNYNSQGVDWWGN		target (spectral count) (HCoV-OC43 gRNA and sgRNA; type s_36_m, HCoV-OC43-infected HCT-8 cells, 36 hpi, Probe II): 7; background (spectral count) (HCoV-OC43 gRNA and sgRNA; type s_36_m, uninfected-probe control, 36 hpi, Probe II): 1
RNPS1 (protein, UniProt Q15287 1-305, looked up) RNA-binding protein with …: MDLSGVKKKSLLGVKENNKKSSTRAPSPTKRKDRSDEKSKDRSKDKGATKESSEKDRGRDKTRKRRSASSGSSSTRSRSSSTSSSGSSTSTGSSSGSSSSSASSRSGSSSTSRSSSSSSSSGSPSPSRRRHDNRRRSRSKSKPPKRDEKERKRRSPSPKPTKVHIGRLTRNVTKDHIMEIFSTYGKIKMIDMPVERMHPHLSKGYAYVEFENPDEAEKALKHMDGGQIDGQEITATAVLAPWPRPPPRRFSPPRRMLPPPPMWRRSPPRMRRRSRSPRRRSPVRRRSRSPGRRRHRSRSSSNSSR	7	
